From the supplement of paper PMC10567573

B1: ZNF232 (parent)
chain: HSGEKPFICKECGKAYGWCSELIR

Variants of: B1
Experiment: protein stability index of a GFP-peptide fusion (GPS, HEK-293T) (PSI 1-6); higher = more stable
Settings: c terminus: a fixed tail appended
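Also: lentivirally expressed fusions sorted by FACS into six bins by GFP to DsRed ratio, PSI derived from sequencing read proportions per bin multiplied by bin number.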

In order of rising protein stability index:
1. Y16L  1.25
2. C19W  1.37
3. G17N  1.38
4. S20L  1.39
5. G13K  1.42
6. C12H  1.43
7. G13Q  1.44
8. K14L  1.44
9. A15G  1.45
10. G13F  1.49
11. G13L  1.49
12. A15L  1.49
13. G17V  1.52
14. G13W  1.53
15. K14P  1.53
16. Y16V  1.54
17. C19Y  1.54
18. W18F  1.55
19. G17T  1.56
20. Y16A  1.58
21. Y16F  1.6
22. G17K  1.6
23. Y16P  1.61
24. K14E  1.61
25. K14R  1.61
26. K14H  1.61
27. G13P  1.65
28. G13T  1.65
29. G17R  1.65
30. K14N  1.67
31. C19V  1.68
32. C19F  1.69
33. C19L  1.69
34. A15K  1.69
35. A15D  1.69
36. G13R  1.7
37. K14S  1.7
38. K14V  1.71
39. S20D  1.72
40. C19R  1.73
41. Y16E  1.75
42. A15W  1.75
43. G13I  1.76
44. G13H  1.77
45. W18K  1.78
46. W18Y  1.79
47. C12R  1.79
48. G17S  1.8
49. W18P  1.81
50. C12P  1.81
51. A15E  1.81
52. C19H  1.82
53. G17E  1.82
54. G17L  1.82
55. W18T  1.83
56. A15N  1.83
57. G17A  1.84
58. W18A  1.85
59. C12A  1.85
60. A15Y  1.85
61. K14Q  1.87
62. G13S  1.88
63. Y16N  1.88
64. C12Q  1.88
65. G13M  1.89
66. C19I  1.89
67. C19G  1.89
68. A15H  1.89
69. W18R  1.9
70. A15M  1.9
71. A15F  1.92
72. Y16G  1.93
73. Y16M  1.94
74. C19D  1.94
75. S20G  1.96
76. K14M  1.96
77. G13D  1.97
78. G17F  1.97
79. K14Y  1.98
80. E11Y  1.98
81. Y16S  1.99
82. K14D  2.01
83. A15V  2.01
84. K14F  2.02
85. W18N  2.03
86. C19P  2.03
87. K14I  2.04
88. E11V  2.04
89. A15T  2.05
90. Y16I  2.06
91. Y16R  2.06
92. C19A  2.06
93. S20E  2.07
94. C19N  2.08
95. C19K  2.08
96. W18L  2.09
97. C19T  2.09
98. G17H  2.09
99. G13N  2.1
100. Y16W  2.1
101. S20F  2.11
102. Y16K  2.11
103. A15Q  2.11
104. G13Y  2.12
105. C19M  2.13
106. G13E  2.14
107. E11W  2.14
108. A15S  2.14
109. A15R  2.14
110. C12G  2.15
111. C12Y  2.15
112. Y16D  2.16
113. S20I  2.17
114. W18C  2.18
115. C12W  2.18
116. S20K  2.2
117. G17Q  2.2
118. G17W  2.2
119. G17D  2.2
120. G17M  2.2
121. C12T  2.21
122. G13C  2.22
123. K14T  2.24
124. G17Y  2.24
125. W18V  2.25
126. W18H  2.28
127. G13A  2.29
128. A15P  2.29
129. E11S  2.31
130. S20H  2.33
131. Y16Q  2.33
132. C12K  2.33
133. S20A  2.34
134. A15I  2.34
135. C12F  2.38
136. G13V  2.39
137. K14A  2.39
138. C19Q  2.39
139. C12S  2.42
140. W18G  2.43
141. C12D  2.44
142. W18I  2.46
143. E11T  2.48
144. W18Q  2.49
145. Y16T  2.49
146. Y16C  2.5
147. C19E  2.5
148. C12I  2.5
149. G17I  2.51
150. G17P  2.54
151. W18M  2.57
152. C12E  2.64
153. W18S  2.67
154. W18D  2.67
155. K14W  2.68
156. C12N  2.72
157. K14C  2.73
158. A15C  2.76
159. C12V  2.79
160. K14G  2.8
161. C12M  2.81
162. C19S  2.83
163. W18E  2.95
164. S20C  2.96
165. C12L  3.03
166. Y16H  3.04
167. G17C  3.39
